{"source": "patent US8263074B2", "about": "“Fibroblast growth factor receptor-1 inhibitors and methods of treatment thereof” (ImClone LLC, priority 2003, dated 2012)", "key": {"FGFR-1b": {"molecular_target": "T1, FGFR-1b (Homo sapiens, UniProt P11362)", "T1 construct": "purchased R&D Systems", "T1 sequence (P11362 22-822 isoform P11362-19 limits assumed)": "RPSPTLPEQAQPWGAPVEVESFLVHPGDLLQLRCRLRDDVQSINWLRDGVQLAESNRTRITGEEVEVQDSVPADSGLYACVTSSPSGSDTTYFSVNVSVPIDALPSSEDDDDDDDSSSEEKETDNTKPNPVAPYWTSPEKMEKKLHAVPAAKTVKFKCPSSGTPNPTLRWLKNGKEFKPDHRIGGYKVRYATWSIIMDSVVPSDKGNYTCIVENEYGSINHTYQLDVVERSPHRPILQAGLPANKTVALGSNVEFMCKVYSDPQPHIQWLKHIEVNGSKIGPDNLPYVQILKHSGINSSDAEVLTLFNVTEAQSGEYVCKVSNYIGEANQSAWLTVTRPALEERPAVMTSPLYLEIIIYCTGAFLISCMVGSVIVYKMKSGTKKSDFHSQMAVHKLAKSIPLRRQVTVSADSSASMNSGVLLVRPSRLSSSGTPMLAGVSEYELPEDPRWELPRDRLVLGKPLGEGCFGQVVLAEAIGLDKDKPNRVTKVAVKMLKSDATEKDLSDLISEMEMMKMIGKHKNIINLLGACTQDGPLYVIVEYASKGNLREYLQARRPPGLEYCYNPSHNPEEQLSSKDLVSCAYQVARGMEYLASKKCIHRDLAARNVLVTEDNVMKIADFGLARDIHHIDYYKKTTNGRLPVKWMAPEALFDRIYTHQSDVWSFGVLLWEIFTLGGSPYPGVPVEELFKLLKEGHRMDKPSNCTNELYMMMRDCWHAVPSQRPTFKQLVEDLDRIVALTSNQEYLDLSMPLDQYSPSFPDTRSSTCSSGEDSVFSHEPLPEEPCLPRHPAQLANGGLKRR", "assay": "BiaCore binding kinetics", "settings": "kinetic analyses"}, "FGFR-1c": {"molecular_target": "T2, FGFR-1c (Homo sapiens, UniProt P11362)", "T2 construct": "purchased R&D Systems", "T2 sequence (P11362 22-822)": "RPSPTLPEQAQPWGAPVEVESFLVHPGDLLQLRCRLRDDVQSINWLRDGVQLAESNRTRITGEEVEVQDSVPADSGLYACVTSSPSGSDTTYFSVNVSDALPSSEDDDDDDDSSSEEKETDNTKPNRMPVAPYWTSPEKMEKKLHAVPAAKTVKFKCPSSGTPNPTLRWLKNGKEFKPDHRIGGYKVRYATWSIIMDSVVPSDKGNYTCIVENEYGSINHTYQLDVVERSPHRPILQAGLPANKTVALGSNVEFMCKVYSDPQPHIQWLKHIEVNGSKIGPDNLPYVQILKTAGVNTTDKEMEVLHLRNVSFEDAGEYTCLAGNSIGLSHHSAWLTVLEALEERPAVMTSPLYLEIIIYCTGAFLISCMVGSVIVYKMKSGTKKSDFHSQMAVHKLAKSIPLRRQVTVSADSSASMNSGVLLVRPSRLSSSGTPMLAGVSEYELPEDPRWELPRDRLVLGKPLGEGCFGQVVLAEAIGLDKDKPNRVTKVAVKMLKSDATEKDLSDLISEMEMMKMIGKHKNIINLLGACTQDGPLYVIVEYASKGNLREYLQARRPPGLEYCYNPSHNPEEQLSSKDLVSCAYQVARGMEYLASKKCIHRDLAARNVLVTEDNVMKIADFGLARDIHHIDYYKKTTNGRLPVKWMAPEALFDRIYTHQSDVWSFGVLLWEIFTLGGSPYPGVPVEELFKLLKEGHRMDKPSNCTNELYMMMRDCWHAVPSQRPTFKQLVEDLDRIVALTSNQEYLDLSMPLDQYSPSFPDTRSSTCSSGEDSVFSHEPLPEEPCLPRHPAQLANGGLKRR", "assay": "BiaCore binding kinetics", "settings": "kinetic analyses; read-out: KD, FGFR-1c"}, "FGFR-2b": {"molecular_target": "T3, FGFR-2b (Homo sapiens, UniProt P21802)", "T3 construct": "purchased R&D Systems", "T3 sequence (P21802 22-822 isoform P21802-3 limits assumed)": "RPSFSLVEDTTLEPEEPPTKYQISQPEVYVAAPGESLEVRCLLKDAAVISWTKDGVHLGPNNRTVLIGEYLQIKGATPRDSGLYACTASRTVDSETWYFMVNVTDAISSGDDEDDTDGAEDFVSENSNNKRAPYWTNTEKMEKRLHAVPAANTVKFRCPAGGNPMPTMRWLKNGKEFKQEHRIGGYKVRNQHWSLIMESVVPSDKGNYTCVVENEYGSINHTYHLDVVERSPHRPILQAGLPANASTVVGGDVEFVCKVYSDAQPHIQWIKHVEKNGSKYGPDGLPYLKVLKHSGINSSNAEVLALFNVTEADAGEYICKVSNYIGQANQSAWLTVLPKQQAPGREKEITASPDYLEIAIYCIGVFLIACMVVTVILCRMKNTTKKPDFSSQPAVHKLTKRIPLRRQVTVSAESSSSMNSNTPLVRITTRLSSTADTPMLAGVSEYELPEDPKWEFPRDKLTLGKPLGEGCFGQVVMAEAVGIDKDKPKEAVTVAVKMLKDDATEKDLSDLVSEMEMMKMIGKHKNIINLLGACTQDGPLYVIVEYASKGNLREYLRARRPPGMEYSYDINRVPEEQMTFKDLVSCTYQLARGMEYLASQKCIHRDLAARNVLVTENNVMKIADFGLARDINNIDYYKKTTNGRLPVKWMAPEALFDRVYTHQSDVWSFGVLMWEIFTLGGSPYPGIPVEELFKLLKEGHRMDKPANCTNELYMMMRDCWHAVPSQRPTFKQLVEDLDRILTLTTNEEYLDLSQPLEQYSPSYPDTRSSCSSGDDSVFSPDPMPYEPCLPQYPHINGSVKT", "assay": "BiaCore binding kinetics", "settings": "BiaCore kinetic analysis"}, "FGFR-2c": {"molecular_target": "T4, FGFR-2c (Homo sapiens, UniProt P21802)", "T4 construct": "purchased R&D Systems", "T4 sequence (P21802 22-821)": "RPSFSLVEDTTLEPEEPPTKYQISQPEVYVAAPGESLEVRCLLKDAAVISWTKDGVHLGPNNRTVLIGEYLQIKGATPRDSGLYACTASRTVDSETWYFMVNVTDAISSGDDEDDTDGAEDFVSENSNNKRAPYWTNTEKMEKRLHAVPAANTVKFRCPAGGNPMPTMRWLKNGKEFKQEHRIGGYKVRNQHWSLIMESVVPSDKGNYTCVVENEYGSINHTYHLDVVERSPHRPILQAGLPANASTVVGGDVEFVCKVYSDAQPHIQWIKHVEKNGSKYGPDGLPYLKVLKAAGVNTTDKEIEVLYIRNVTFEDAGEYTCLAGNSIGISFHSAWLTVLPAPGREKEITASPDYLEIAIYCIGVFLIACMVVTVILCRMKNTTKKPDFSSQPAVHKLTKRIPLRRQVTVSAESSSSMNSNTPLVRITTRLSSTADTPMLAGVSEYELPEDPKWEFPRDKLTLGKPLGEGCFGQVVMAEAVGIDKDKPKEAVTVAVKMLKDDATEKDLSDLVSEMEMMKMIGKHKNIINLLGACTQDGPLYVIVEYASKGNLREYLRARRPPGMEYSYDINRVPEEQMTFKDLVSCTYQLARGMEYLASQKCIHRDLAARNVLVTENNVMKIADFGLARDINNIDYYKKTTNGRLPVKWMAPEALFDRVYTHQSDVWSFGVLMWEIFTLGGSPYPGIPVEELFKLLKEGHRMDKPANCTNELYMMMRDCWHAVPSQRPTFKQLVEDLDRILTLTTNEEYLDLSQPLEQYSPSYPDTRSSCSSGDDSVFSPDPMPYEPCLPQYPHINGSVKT", "assay": "BiaCore binding kinetics", "settings": "BiaCore kinetic analysis"}, "FGFR-3b": {"molecular_target": "T5, FGFR-3b (Homo sapiens, UniProt P22607)", "T5 construct": "purchased R&D Systems", "T5 sequence (P22607 23-808 isoform P22607-2 limits assumed)": "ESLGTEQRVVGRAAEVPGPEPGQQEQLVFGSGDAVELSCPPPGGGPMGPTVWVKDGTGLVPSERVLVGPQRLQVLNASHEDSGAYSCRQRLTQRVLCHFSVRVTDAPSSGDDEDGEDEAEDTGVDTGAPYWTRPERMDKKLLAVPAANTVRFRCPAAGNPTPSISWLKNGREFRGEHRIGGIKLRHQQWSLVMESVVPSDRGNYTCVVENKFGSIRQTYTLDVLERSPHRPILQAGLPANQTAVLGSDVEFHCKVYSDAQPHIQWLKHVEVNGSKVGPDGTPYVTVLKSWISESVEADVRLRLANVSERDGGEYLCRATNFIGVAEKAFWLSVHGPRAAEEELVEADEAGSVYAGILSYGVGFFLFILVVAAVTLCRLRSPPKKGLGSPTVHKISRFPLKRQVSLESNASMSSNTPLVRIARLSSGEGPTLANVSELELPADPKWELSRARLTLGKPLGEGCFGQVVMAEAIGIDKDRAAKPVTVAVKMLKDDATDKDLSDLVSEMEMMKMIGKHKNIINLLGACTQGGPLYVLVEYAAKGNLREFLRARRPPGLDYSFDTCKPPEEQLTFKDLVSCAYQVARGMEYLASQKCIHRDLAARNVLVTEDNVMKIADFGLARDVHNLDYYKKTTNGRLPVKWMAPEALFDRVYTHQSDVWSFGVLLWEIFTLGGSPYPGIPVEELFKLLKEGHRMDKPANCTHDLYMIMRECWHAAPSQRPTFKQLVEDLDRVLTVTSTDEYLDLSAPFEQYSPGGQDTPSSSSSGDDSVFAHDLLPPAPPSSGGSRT", "assay": "BiaCore binding kinetics", "settings": "BiaCore kinetic analysis"}, "FGFR-3c": {"molecular_target": "T6, FGFR-3c (Homo sapiens, UniProt P22607)", "T6 construct": "purchased R&D Systems", "assay": "BiaCore binding kinetics", "settings": "BiaCore kinetic analysis"}, "FGFR-4": {"molecular_target": "T7, FGFR-4 (Homo sapiens, UniProt P22455)", "T7 construct": "purchased R&D Systems", "T7 sequence (P22455 22-802)": "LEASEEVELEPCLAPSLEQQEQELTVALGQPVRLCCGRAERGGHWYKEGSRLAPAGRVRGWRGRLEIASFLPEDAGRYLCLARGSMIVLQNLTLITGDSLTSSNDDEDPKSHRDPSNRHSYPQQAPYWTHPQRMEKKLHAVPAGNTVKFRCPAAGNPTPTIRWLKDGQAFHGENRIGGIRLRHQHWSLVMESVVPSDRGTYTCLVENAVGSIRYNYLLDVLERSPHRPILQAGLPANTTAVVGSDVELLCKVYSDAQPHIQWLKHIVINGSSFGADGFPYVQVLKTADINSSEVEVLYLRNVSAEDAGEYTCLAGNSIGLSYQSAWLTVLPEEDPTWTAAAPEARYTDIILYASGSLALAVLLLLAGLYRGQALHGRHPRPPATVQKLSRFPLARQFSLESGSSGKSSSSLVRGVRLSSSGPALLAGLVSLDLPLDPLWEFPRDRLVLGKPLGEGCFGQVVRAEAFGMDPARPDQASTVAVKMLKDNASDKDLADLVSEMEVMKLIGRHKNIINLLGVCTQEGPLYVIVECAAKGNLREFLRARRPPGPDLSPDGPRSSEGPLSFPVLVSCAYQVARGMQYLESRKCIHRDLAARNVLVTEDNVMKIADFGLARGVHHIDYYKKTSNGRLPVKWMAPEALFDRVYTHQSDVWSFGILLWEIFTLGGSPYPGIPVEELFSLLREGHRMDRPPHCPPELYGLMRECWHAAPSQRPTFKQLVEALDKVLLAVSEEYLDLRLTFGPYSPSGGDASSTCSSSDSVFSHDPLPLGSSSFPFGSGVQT", "assay": "ELISA binding assay", "experimental": "(§1) Recombinant FGFRs (R&D systems) at a concentration of 1 μg/ml in PBS were coated on 96-well plates at room temperature for 2 hrs. The plates were washed 3 times with 0.2% Tween20/PBS, and blocked with 5% milk/PBS for 2 hrs before use. FR1-H7 or FR1-A1 was added to the plate and serially diluted in 0.2% Tween20/PBS. The plate was incubated at room temperature for 2 more hrs. The captured antibodies were detected using an anti-human light chain monoclonal antibody conjugated with […] (Pierce Biotechnology, Rockford, Ill.) solution prepared according to supplier's instructions."}, "other FGFRs": {"system": "other FGFRs", "assay": "ELISA binding assay", "experimental": "as §1"}, "FGFR-1": {"molecular_target": "T8, FGFR-1 (Homo sapiens, UniProt P11362)", "T8 construct": "expressed in transfected cells; host or cells: L6 (ATCC), pBABE retroviral vector", "T8 sequence (P11362 22-822)": "as the sequence (P11362 22-822) above", "assay": "Phosphorylation assay in FGFR-1 expressing L6 cells (western blot)", "assay_type": "cell-based", "settings": "anti-phospho-tyrosine western blot", "experimental": "FGFR-1 expressing L6 cells were cultured in 10% FBS, DMEM, in a 24-well tissue culture plate till confluency. Cells were Serum starved in 5 μg/ml heparin, 0.1% FBS, DMEM, for 8-24 hrs. Either FR1-H7 or FR1-A1 was added to the media and allowed to bind with the cell surface receptors at 37° C. for 1 hr. Cells were then stimulated with 20 ng/ml FGFs at 37° C. for 10 min before they were lyzed using ice-cold lysis buffer for 30 min. Cell lysate was subjected to SDS-PAGE followed by western blot. Membranes were probed with anti-phospho-tyrosine antibody (Cell Signaling Technology, Inc., Beverly, Mass.) for detection of phosphorylated FGFR-1 receptors according to supplier's instructions.\nThe phosphorylation assay for small molecules is essentially the same as the phosphorylation assay described in Examples 7 and 15 and Phosphorylation Assay, except that small molecule compounds was used instead of FGFR-1 antibodies in all occasions. […] Equal amount of cell lysates were applied to each sample lane. Receptor auto-phosphorylation was probed using anti-phospho-tyrosine antibody as described in the original patent."}, "[1]": {"system": "Human astrocytoma G18 cells", "assay": "Mitogenesis assay (3H-thymidine)", "assay_type": "cell-based", "settings": "FGF-2 stimulation", "experimental": "Human astrocytoma G18 cells were seeded in 96-well tissue culture plates at a concentration of 5×10^4 cells/ml. After attachment, cells were quiesced for 24 hrs in RPMI media (Invitrogen) containing 0.1% FBS and 5 μg/ml heparin. Antibodies were serially diluted, added to the wells, and incubated with the cells at 37° C. for 1 hr. Recombinant FGF-2 was then added to a final concentration of 5 ng/ml. Cells were cultured in an incubator at 37° C. with 5% CO2. Cell growth was determined 24 hrs later by monitoring ^3H-thymidine incorporation as described previously."}, "[2]": {"assay": "Repeated-dose study in female athymic nude mice: body weight, food intake, rearing, blood glucose", "assay_type": "in vivo", "settings": "for body weight loss compared to the control: day 5 after two treatments; for reduction of non-fast food intake: between first and second treatments", "experimental": "Female athymic nude mice (Cr1:NU/NU-nuBR, Charles River Laboratories, Wilmington, Mass.) were housed 4-5 per cage. Mice were given autoclaved food (Lab Diet #5001, PMI Feeds Inc., St. Louis, Mo.) and water ad libitum. All animal use in this study was conducted in compliance with approved institutional animal care and use protocols, and according to NIH guidelines (Guide for the Care and Use of Laboratory Animals, NIH publication no. 86-23, 1985).\nIn one assay, mice were injected intraperitoneally (i.p.) with FR1-H7 at 0.19, 1.9, and 19 mg/kg body weight (n=5 per group). In another assay, mice were injected subcutaneously (s.c.) with the antibody, at 0.4, 4, and 40 mg/kg body weight. In control arms, mice were treated with saline i.p. or s.c. In addition, one group of mice was left untreated (n=4). All treatments were given at a volume of 10 μl/g body weight in Saline. Treatments were started on a Wednesday (Day 0) with additional treatments on the following Friday, Monday, Wednesday, and Friday. After this 9-day treatment period mice received no additional treatments.\nAlternatively, female athymic nude mice were injected (i.p.) with saline, 2 mg/kg, or 20 mg/kg FR1-A1 on a Monday (Day 0) and Wednesday. Body weights were measured before the first injection, and on Day 2 and Day 5. Food intake per group was measured 2 days after the first injection.\nThe body weights of all animals were measured 3 times/week. Food consumption, behavior, and serum glucose were evaluated as follows. Food Intake Measurement: Prior to the treatment on Day 2 mice were placed in a new cage and the weight of the food container in the cage top was weighed. Prior to the treatment on Day 5 the weight of the food container was measured again. The difference in the Day 2 to Day 5 food container weight was divided by the number of mice per cage and the number of days between the measurements to give a food intake per mouse per 24 hrs. Activity Measurement: On Day 12, 3 days after the final treatment, mice were placed individually into a new cage and the number of rearings was counted over a 1 min period. Blood Glucose Measurement On Day 16, 7 days after the final treatment, non-fasted blood glucose was measured in blood collected from the tip of the tail using an Ascensia Elite XL blood glucose meter (glucose oxidase method, Bayer, Pittsburg, Pa.)."}, "FGFR-1(IIIc) [3]": {"molecular_target": "T9, FGFR-1(IIIc) (Homo sapiens, UniProt P11362)", "T9 sequence (P11362 22-822)": "as above", "assay": "ELISA binding assay", "set-up": "purchased R&D Systems", "experimental": "as §1"}, "FGFR-1(IIIc) [4]": {"molecular_target": "T9, FGFR-1(IIIc)", "assay": "ELISA blocking assay (receptor binding to immobilized FGF)", "set-up": "purchased R&D Systems", "experimental": "Recombinant FGFs (R&D systems, Minneapolis, Minn.) were coated on Immulon® 2B microtiter plates (ThermoLab Systems, Franklin, Mass.) at concentrations of 0.5-2 μg/ml for 2 hrs. The plates were then washed with 0.2% Tween20/PBS, and blocked with 5% milk/PBS for 2 hrs before use. Phage or antibody was serially diluted with 5 μg/ml heparin (Sigma, St Louis, Mo.), 5% milk, PBS. Recombinant FGFR-1 (R&D Systems) was then added to a final concentration of 1 μg/ml. The mixture was incubated at room temperature for 1 hr before transfer to the FGF-2 coated plates, and incubated at room temperature for an additional 2 hrs. Plates were then washed 3 times with 0.2% Tween20/PBS. The bound receptors were detected using an anti-human Fc monoclonal antibody coupled with HRP (Pierce Biotechnology Inc., Rockford, Ill.) solution prepared according to supplier's instructions. Data were presented as % inhibition of ligand-receptor binding of the controls."}}, "note": "Like-named read-outs stand apart in the source and are kept apart here.", "data": [{"molecule": "FR1-A1: antibody specific for FGFR-1(IIIc) and/or FGFR-4(IIIc); VH/VL SEQ ID NOS:15, 16 (antibody, listed as Homo sapiens, V domains shown) VH: MAQVQLVQSGAEVKKPGSSVKVSCKASGQTFTGYYMHWVRQAPGQGLEWMGRIIPILGIANYAQKFQGRVTITADKSTSTAYMELSSLRSEDTAVYYCARGGDLGGMDVWGQG VL: LEIVLTQSPLSLPVTPGEPASISCRSSQSLRHSNGYNYLDWYLQKPGQSPQLLIYLASNRASGVPDRFSGSGSGTDFTLKISRVEAEDVGVYYCMQALQIPPTFGPGTKVDIKRTVAA", "values": [{"measurement": "Kd", "setting": "FGFR-1b", "result": "> 10000", "unit": "nM"}, {"measurement": "Kd", "setting": "FGFR-1c", "result": 0.7, "unit": "nM"}, {"measurement": "Kd", "setting": "FGFR-2b", "result": "> 10000", "unit": "nM"}, {"measurement": "Kd", "setting": "FGFR-2c", "result": "> 10000", "unit": "nM"}, {"measurement": "Kd", "setting": "FGFR-3b", "result": "> 10000", "unit": "nM"}, {"measurement": "Kd", "setting": "FGFR-3c", "result": "> 10000", "unit": "nM"}, {"measurement": "binding to FGFR-4", "setting": "FGFR-4", "result": "moderate affinity"}, {"measurement": "binding to the other FGFRs", "setting": "other FGFRs", "result": "little binding"}, {"measurement": "inhibition of ligand (FGF) mediated receptor phosphorylation", "setting": "FGFR-1; antibody", "result": "significantly inhibits"}, {"measurement": "receptor activation by the antibody by itself", "setting": "FGFR-1; no ligand", "result": "does not activated the receptor"}, {"measurement": "FGF-2 stimulated DNA synthesis (mitogenesis) of G18 cells", "setting": "[1]", "result": "decreased this stimulation in a dose-dependant manner"}, {"measurement": "body weight loss compared to the control", "setting": "[2]; 2 mg/kg i.p.", "result": "~9", "unit": "%"}, {"measurement": "reduction of non-fast food intake", "setting": "[2]; 2 mg/kg", "result": "~14", "unit": "%"}, {"measurement": "body weight loss compared to the control", "setting": "[2]; 20 mg/kg i.p.", "result": "~23", "unit": "%"}, {"measurement": "reduction of non-fast food intake", "setting": "[2]; 20 mg/kg", "result": "~44", "unit": "%"}, {"measurement": "binding to FGFR-1(IIIc)", "setting": "FGFR-1(IIIc) [3]", "result": "strong binding affinity"}, {"measurement": "IC50", "setting": "FGFR-1(IIIc) [4]; immobilized FGF-1, read-out: IC50, blocking FGFR-1(IIIc) binding to FGF-1", "result": "~5", "unit": "nM"}, {"measurement": "IC50", "setting": "FGFR-1(IIIc) [4]; immobilized FGF-2, read-out: IC50, blocking FGFR-1(IIIc) binding to FGF-2", "result": "~10", "unit": "nM"}]}]}
